Here are results for one molecule from patent publication US7045576B2, “Adjuvants and copolymer compositions” (Cytrx Corporation, priority 1994, dated 2006).

Assay [1] has as its system ovalbumin (OVA). The format is in vivo, C57BL/6 mice. Conditions: two immunizations with 15 μg of OVA in saline, no adjuvant, 4 weeks.
Method: The immune responses induced by experimental subunit vaccine formulations based on a prototype immunogen combined with different adjuvants including CRL1005 were evaluated. Ovalbumin (OVA) was selected as to vaccine immunogen since dose levels of OVA for obtaining optimal and suboptimal immune responses had been established previously. […] OVA was administered at a dose of 15 ug/dose in a total volume of 100 ul. This dose of OVA had been established as non-immunogenic unless combined with an adjuvant.
Ninety mice (C57BL/6) were divided into 9 test and control groups of 10 mice per group. The mice were immunized twice with 28 days between immunizations. Vaccines were administered by needle injection subcutaneously (s.c.) in a total volume of 100 μ/dose.
To evaluate antibody responses, 4 weeks after the second immunization blood was collected via the retro-orbital sinus from 6 mice/group and sera was recovered for serological assay.
For assay [2], the system named is EG-7.OVA cells. Nature of the assay: OVA-specific cytotoxic T-lymphocyte (CTL) 51Cr-release assay. The format is cell-based, C57BL/6 mice. Conditions: after culture of spleen cells with irradiated EG-7.OVA; two immunizations. An excerpt:
FIG. 12 presents OVA-specific cytotoxic T-lymphocyte (CTL) responses induced in C57BL/6 mice following two immunizations (days 0 and 28) with OVA in saline (left) or formulated in aqueous solution with CRL1005 copolymer adjuvant (right). A standard ^51 chromium (CR)-release CTL assay was used with OVA-transfected EG-7.OVA cells and control EL-4 cells as the targets. Spleen cells were used as the source of precursor CTL, which were induced to mature to functional CTL effector cells, by culture for 6 days with irradiated EG-7.OVA or EL-4 cells. All testing was done in triplicate using a titration of Effector: Target cells, shown as ratios. Data are shown as the Percent Specific Release (Test Release−Spontaneous Release/Maximum Release−Spontaneous Release)×100.
Cytotoxic T-lymphocyte responses (CTL) were measured using a standard in vitro assay and two different cells for stimulator and target cells. The OVA.EG7 cell line was used as both target cells and antigen specific stimulator cells; cells were irradiated when used as stimulator cells. Control target cells were wild-type EL-4 cells, that are not transfected with OVA. Splenic mononuclear cells were used as the effector cells. These cells were assayed after in vitro stimulation to induce precursor CTL maturation to functional CTL effector cells.

In assay [3] the test system is ovalbumin (OVA). As to the kind of experiment: Serum antibody responses to OVA after s.c., oral or nasal delivery. Format: in vivo, C57BL/6 mice. As to the method: The utility of the CRL1005 copolymer for use as an oral vaccine adjuvant/delivery system using OVA as the vaccine antigen was evaluated. To ensure immunogenicity of the formulation, C57BLJ6 mice in the positive control group were immunized twice, at ten day intervals, subcutaneously (s.c.) with 25 μg/100 μl dose of OVA+/−1.25% CRL1005 in PBS. Mice immunized orally received 125 μg/500 μl dose of +/−1.25% CRL1005 in bicarbonate buffer, again at 10 day intervals. Mice were also immunized using nasal delivery since dilution or degradation in the stomach was considered to be a possibility. Mice received the same amounts of OVA and CRL1005 used for the s c injections but in a volume of 20 μl. Blood was collected as the source of serum antibodies for testing 14 days after the second immunization.

Assay [4] has as its system splenic mononuclear cells. Format: cell-based, C57BL/6 mice. Particulars: immunization with OVA alone.

Sequence of ovalbumin (OVA) (P01012 whole entry): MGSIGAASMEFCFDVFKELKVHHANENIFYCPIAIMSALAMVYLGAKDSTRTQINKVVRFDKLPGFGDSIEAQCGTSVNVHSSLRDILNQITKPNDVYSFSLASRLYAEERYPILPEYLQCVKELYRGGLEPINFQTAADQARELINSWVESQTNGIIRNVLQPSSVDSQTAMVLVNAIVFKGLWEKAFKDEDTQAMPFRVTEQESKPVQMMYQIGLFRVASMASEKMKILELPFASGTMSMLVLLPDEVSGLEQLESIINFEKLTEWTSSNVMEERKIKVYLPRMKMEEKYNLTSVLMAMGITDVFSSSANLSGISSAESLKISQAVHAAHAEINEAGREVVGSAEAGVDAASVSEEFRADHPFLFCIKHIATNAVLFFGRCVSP

B1: OVA: ovalbumin, prototype vaccine immunogen given without adjuvant (protein, UniProt P01012 2-386, looked up)
Ovalbumin: GSIGAASMEFCFDVFKELKVHHANENIFYCPIAIMSALAMVYLGAKDSTRTQINKVVRFDKLPGFGDSIEAQCGTSVNVHSSLRDILNQITKPNDVYSFSLASRLYAEERYPILPEYLQCVKELYRGGLEPINFQTAADQARELINSWVESQTNGIIRNVLQPSSVDSQTAMVLVNAIVFKGLWEKAFKDEDTQAMPFRVTEQESKPVQMMYQIGLFRVASMASEKMKILELPFASGTMSMLVLLPDEVSGLEQLESIINFEKLTEWTSSNVMEERKIKVYLPRMKMEEKYNLTSVLMAMGITDVFSSSANLSGISSAESLKISQAVHAAHAEINEAGREVVGSAEAGVDAASVSEEFRADHPFLFCIKHIATNAVLFFGRCVSP
In the case of B1, in assay [1], the OVA-specific antibody responses entry is reported as “not induced”. In addition, the “OVA-specific CTL activity” value in assay [2] is “not detected”. Moreover, the “serum antibody response to OVA” value in assay [3] (nasal, 25 μg OVA +/- 1.25% CRL1005 in 20 μl, twice) is listed as “failed to induce antibody responses”; in assay [3] (oral, 125 μg OVA +/- 1.25% CRL1005 in bicarbonate buffer, twice), “failed to induce antibody responses”; in assay [3] (s.c., 25 μg OVA +/- 1.25% CRL1005, twice, 14 days after second immunization) it was “effective”. For the same molecule, in assay [4], the cytokine responses entry was “did not induce measurable cytokine responses”.
